B1: library; numbered along this chain (parent)
chain: MRKPRAAVGSGHRKQAASQEGRQKHAKNNSQAKPSACDGLARQPEEVVLQASVSSYHLFRDVAEVTAFRGSLLSWYDQEKRDLPWRRRAEDEMDLDRRAYAVWVSEVMLQQTQVATVINYYTGWMQKWPTLQDLASASLEEVNQLWAGLGYYSRGRRLQEGARKVVEELGGHMPRTAETLQQLLPGVGRYTAGAIASIAFGQATGVVDGNVARVLCRVRAIGADPSSTLVSQQLWGLAQQLVDPARPGDFNQAAMELGATVCTPQRPLCSQCPVESLCRARQRVEQEQLLASGSLSGSPDVEECAPNTGQCHLCLPPSEPWDQTLGVVNFPRKASRKPPREESSATCVLEQPGALGAQILLVQRPNSGLLAGLWEFPSVTWEPSEQLQRKALLQELQRWAGPLPATHLRHLGEVVHTFSHIKLTYQVYGLALEGQTPVTTVPPGARWLTQEEFHTAAVSTAMKKVFRVYQGQQPGTCMGSKRSQVSSPCSRKKPRMGQQVLDNFFRSHISTDAHSLNSAAQ

Variants of: B1
Assay: 8OG:A repair function score (normalized; synonymous = 0, nonsense = -1) (normalized log-likelihood score); higher = more repair activity (WT-like)
Settings: with 8OG:A DNA repair reporter (GFP) in HEK-293 MUTYH KO cells
In short: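 Lentiviral MUTYH cDNA NNN codon-scan libraries were expressed in MUTYH knockout HEK-293 cells with 10 pg/ml doxycycline, and the cells received an 8OG:A GFP repair reporter together with mCherry. At 72 h, viable mCherry+ cells went into GFP+ (repair) or GFP− bins, three replicates per tile, before tile amplicons were sequenced. A repair function score was then built from per-tile Rosace fitness scores, anchored on the synonymous and nonsense distributions. Synonymous medians sat at 0 and nonsense at -1, and variants under 300 counts per million at the start were left out.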
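Also: cells sorted at 72 h after reporter transfection.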

8OG:A repair function score, by site and new letter:
G471: N 0.00878, D 0.0172, F -0.0055, K 0.0191, A 0.0172, R 0.00545, Y 0.0198, M 0.011, P -0.0663, W -0.0505, L -0.0292, E -0.0561, H 0.00339, I -0.00761, Q 0.00928, C -0.0198, T -0.0359, V 0.00448, S 0.0169
M478: T -0.0383, K 0.00017, A -0.0431, S -0.00625, I -0.0519, H -0.119, C 0.0262, E 0.0141, L -0.0153, D -0.0222, G 0.0207, F 0.0278, R -0.0213, N -0.0119, P -0.0126, Q 0.0193
A461: Y -0.726, T -0.23, L -0.0454, Q -0.495, H -0.545, K -0.813, S -0.119, I -0.152, W -1.22, P -0.267, N -0.222, V -0.124, R -0.632, M -0.276
C477: I -0.0054, G -0.00235, H 0.0203, L 0.0205, F -0.0432, M 0.00893, S -0.00994, W 0.00839, R 0.000623, Y -0.016, P -0.00239, K 0.00687, N 0.0283, A -0.00821, D 0.016, E -0.0756, T 0.019, V -0.0256, Q 0.0117
T476: W -0.159, R -0.0215, C -0.0603, P -0.0234, G -0.0416, V -0.0294, I -0.074, Q -0.0039, D 0.00347, M -0.0533, N -0.0111, L -0.0267, K 0.024, F 0.0194, Y -0.0187, S 0.00281, A -0.0442, E 0.0105, H -0.0339
R467: K -0.0257, F -0.0681, S -0.0606, W -0.034, C -0.137, I -0.0576, M -0.057, Y -0.0417, V -0.105, E -0.144, G -0.0609, T -0.0575, L -0.0425, N -0.0631, Q -0.0758, P -0.876, A 0.0232, D -0.0155, H -0.0349
G475: L 0.0136, F -0.00573, Y -0.00721, S -0.016, V -0.0131, H -0.0609, C 0.00154, I -0.00703, N 0.0259, D -0.00652, W -0.0871, T -0.0403, M -0.126, E -0.00575, Q -0.00214, P -0.00826, K 0.0247, A 0.000317, R 0.00413
Q473: G 0.0222, F 0.00513, Y -0.023, A -0.00985, R 0.00304, M 0.0265, D -0.0165, K -0.0281, S 0.00408, C 6.68e-05, E -0.021, P -0.0268, L -0.0116, H 0.0203, W 0.0181, T -0.00244, I -0.0484, N 0.0155, V 0.00634
K463: H -0.12, I -0.089, Q -0.183, V -0.129, S -0.241, M -0.0542, N -0.338, D -0.287, R -0.0765, W -0.075, E -0.265, F -0.101, P -0.617, T -0.141, Y -0.191, A -0.157, C -0.196, L -0.0958, G -0.303
K464: R -0.123, W -0.474, S -0.198, I -0.441, N -0.146, Q -0.245, D -0.393, G -0.315, Y -0.503, L -0.298, E -0.152, F -0.702, C -0.49, T -0.351, H -0.313, V -0.276, A -0.184, M -0.266, P -0.968
F466: E -0.52, R -0.568, W -0.0618, G -0.584, T -0.725, S -0.715, I -0.587, C -0.319, N -0.0913, P -1.3, M -0.0599, L -0.0617, D -0.872, Q -0.488, A -0.4, Y 0.00857, V -0.443, H -0.355, K -0.729
V465: C 0.0124, S -0.646, I -0.0425, T -0.191, E -1.42, G -0.801, Y -1.23, N -0.54, L -0.379, M -0.396, H -0.79, D -0.864, F -0.73, R -1.13, P -1.18, W -1.07, K -1.19, Q -1.17, A -0.0879
M462: L -0.449, G -0.215, Y -0.369, E -0.603, F -0.254, I -0.13, Q -0.198, P -0.578, W -0.592, N -0.31, T 0.0162, A -0.0163, C -0.0756, D -0.463, S -0.0759, R -1.12, K -1.21, H -0.138, V -0.097
Y469: H -0.0773, S -0.115, E -0.89, T -0.181, G -0.451, Q -0.317, V -0.153, F -0.0628, P -0.718, A -0.0759, W 0.00845, R -0.195, I -0.259, C -0.193, M -0.259, N -0.738, D -0.955, K -0.326, L -0.314
V468: T -0.0398, M -0.0306, S -0.18, W -0.204, C -0.0116, I -0.0279, P -0.969, D -0.647, F -0.0236, G -0.557, E -0.259, K -0.0375, L -0.00361, Y -0.025, N -0.262, A -0.0846, Q -0.0492, H -0.0347, R -0.101
P474: V 0.00398, C -0.00224, M 0.0118, Q 0.0183, E 0.0263, H 0.0269, K -0.0164, Y -0.0117, L 0.0136, A -0.0123, T 0.0285, G -0.00334, I -0.014, N -0.0807, S -0.00281, R 0.00458, F 0.0108, D 0.00257, W -0.0167
Q472: Y 0.00647, W 0.027, L 0.022, P 0.0113, V 0.00907, K -0.009, N 0.0284, I 0.0116, T -0.00129, H -0.152, M -0.0129, C -0.0129, A 0.0214, F 0.018, G -0.000609, S 0.0274, D 0.0112, R 0.0222, E -0.00354
Q470: G -0.105, D -0.0832, R -0.00198, A -0.0419, M -0.0791, P -0.426, K 0.0155, F -0.0175, L 0.00494, I 0.00254, H -0.029, W -0.0772, C -0.00083, S -0.00501, E -0.000322, T -0.0526, N 0.0117, V -0.00474, Y -0.0671

Reference: the supplement of paper PMC11908140
